Laboratory results reported in article PMC3913756, “Mycobacterium tuberculosis Cyclophilin A Uses Novel Signal Sequence for Secretion and Mimics Eukaryotic Cyclophilins for Interaction with Host Protein Repertoire” (PLoS ONE, 2014).

Biological target: T1, His6-tagged M. tuberculosis PpiA (cyclophilin A) (Mycobacterium tuberculosis H37Rv, UniProt P9WHW3 1-182)
T1 construct: also called Rv0009; MTBPPIA
Experiment: native gel or EMSA
Details: both partners purified

B1: purified M. tuberculosis Ef-Tu (Tuf) (natural protein)
chain: not shown
  binding result: binds
